Reference: patent publication US20100260754A1 (Eli Lilly, published 2010)

How the values were obtained:
[1] = molecular target: T1, rabbit DKK-1 (SEQ ID NO: 32) (rabbit, UniProt O94907 32-265 (human entry), limits assumed); assay: KinExA solution equilibrium, 37 C, His-tagged DKK-1
T1 construct: also called His-tagged DKK-1
T1 chain: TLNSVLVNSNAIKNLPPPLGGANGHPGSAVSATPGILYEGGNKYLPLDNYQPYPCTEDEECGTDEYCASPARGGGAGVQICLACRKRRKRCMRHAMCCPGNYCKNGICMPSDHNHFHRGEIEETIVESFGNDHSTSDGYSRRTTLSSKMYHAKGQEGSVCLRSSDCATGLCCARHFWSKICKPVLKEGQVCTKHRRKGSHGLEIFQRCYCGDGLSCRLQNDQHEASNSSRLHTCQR
Method: (§1) To establish a binding equilibrium, a constant concentration of antibody is mixed with varying concentrations of His-tagged DKK-1 (SEQ ID NO:29, SEQ ID NO:30, SEQ ID NO:31, SEQ ID NO:32, or SEQ ID NO:33) (1 nM-1 pM range) in PBS (pH 7.4)+1 mg/mL bovine serum albumin (“BSA”) or buffer alone and incubated for several days at 37° C. Two sets of binding reactions are set up, one set at low concentration of antibody (3 pM) and one set at high concentration of antibody (30 or 50 pM).
(§2) After establishing equilibrium, a KinExA 3000 instrument (Sapidyne Inst. Inc.) is used to probe for the fraction of ‘free’ (unbound) antibody. Briefly, His-tagged DKK-1 is covalently coupled to NHS-activated Sepharose 4 Fast Flow beads (GE Healthcare) which are packed by the instrument to create a small column. The pre-equilibrated mixtures of antibody+His-tagged DKK-1 are passed over the beads to capture only free antibody. The amount of free antibody captured is proportional to the free concentration in the equilibrated samples, and is detected by injection of a fluorescently labeled secondary antibody. Data sets from low and high concentrations of antibody are fit globally using n-curve analysis in the KinExA software. This fitting returns a Kd value as well as the 95% confidence interval.

[2] = molecular target: T2, cynomolgus DKK-1 (SEQ ID NO: 30) (cynomolgus, UniProt O94907 32-265 (human entry), limits assumed); assay: as above
T2 construct: also called His-tagged DKK-1
T2 chain: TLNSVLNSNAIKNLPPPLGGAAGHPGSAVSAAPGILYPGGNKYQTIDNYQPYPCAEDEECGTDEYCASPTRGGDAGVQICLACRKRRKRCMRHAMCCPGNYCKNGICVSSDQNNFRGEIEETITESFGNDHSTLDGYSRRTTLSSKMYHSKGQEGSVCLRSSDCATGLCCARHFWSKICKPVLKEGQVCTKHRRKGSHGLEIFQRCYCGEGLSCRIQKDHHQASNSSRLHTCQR
Method: as §1, §2

[3] = molecular target: T3, mouse DKK-1 (SEQ ID NO: 33) (mouse, UniProt O54908 32-272); assay: as above
T3 construct: also called His-tagged DKK-1; Murine
T3 sequence: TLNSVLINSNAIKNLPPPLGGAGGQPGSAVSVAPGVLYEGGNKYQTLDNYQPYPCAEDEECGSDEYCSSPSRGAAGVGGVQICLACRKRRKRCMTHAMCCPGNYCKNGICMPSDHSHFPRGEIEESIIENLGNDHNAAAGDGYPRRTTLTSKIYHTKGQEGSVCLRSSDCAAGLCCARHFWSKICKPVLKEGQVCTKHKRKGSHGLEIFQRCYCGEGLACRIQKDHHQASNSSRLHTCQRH
Method: as §1, §2

[4] = molecular target: T4, human DKK-1 (SEQ ID NO: 29) (human, UniProt O94907 32-266); assay: as above
T4 construct: A tag is not mentioned for the C2C12 assay; also called His-tagged DKK-1; Dickkopf-1
T4 sequence: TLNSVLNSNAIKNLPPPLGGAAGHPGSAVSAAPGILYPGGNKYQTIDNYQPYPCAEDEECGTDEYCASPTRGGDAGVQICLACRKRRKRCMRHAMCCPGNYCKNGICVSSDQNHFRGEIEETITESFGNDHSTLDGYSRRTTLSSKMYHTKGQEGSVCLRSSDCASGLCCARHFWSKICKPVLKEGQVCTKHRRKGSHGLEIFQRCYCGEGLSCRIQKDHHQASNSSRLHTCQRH
Method: as §1, §2

[5] = molecular target: T5, rat Dkk-1 (SEQ ID NO: 31) (rat, UniProt O54908 32-272 (mouse entry), limits assumed); assay: as above
T5 construct: also called His-tagged DKK-1
T5 chain: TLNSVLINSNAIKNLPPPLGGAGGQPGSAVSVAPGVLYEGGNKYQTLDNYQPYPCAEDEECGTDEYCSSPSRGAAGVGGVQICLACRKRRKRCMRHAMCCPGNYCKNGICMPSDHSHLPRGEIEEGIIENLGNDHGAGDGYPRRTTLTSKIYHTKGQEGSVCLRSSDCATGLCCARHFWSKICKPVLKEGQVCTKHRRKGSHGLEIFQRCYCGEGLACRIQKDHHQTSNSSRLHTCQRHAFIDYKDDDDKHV
Method: as §1, §2

[6] = molecular target: T1, rabbit DKK-1 (SEQ ID NO: 32); assay: cell-based or functional assay
[7] = molecular target: T2, cynomolgus DKK-1 (SEQ ID NO: 30); assay: cell-based or functional assay
[8] = molecular target: T4, human DKK-1 (SEQ ID NO: 29); assay: cell-based or functional assay
[9] = molecular target: T5, rat Dkk-1 (SEQ ID NO: 31); assay: cell-based or functional assay

Kd [1]: 0.017 nM
Kd [2]: 0.014 nM
Kd [3]: 0.007 nM
Kd [4]: 0.0033 nM
Kd [5]: 0.0084 nM
EC50, block of DKK-1-mediated inhibition of alkaline phosphatase in C2C12 cells [6]: 6 nM
EC50, block of DKK-1-mediated inhibition of alkaline phosphatase in C2C12 cells [7]: 6.4 nM
EC50, block of DKK-1-mediated inhibition of alkaline phosphatase in C2C12 cells [8]: 9.8 nM
EC50, block of DKK-1-mediated inhibition of alkaline phosphatase in C2C12 cells [9]: 2.9 nM
B1: Antibody II (antibody, human IgG4 S228P, kappa, F234A L235A, V domains shown)
VH: EVQLVESGGGLVQPGGSLRLSCAASGFTFSSYTMSWVRQAPGKGLEWVATISGGGFGTYYPDSVKGRFTISRDNAKNSLYLQMNSLRAEDTAVYYCARPGYNNYYFDIWGQGTTVTVSS
VL: EIVLTQSPATLSLSPGERATLSCHASDSISNSLHWYQQKPGQAPRLLIYYARQSIQGIPARFSGSGSGTDFTLTISSLEPEDFAVYYCQQSESWPLHFGGGTKVEIKR
notes: also called human engineered DKK-1 antibody
